From patent publication US20250144207A1, “COMBINATION THERAPY COMPRISING ANTI-CCR9 ANTIBODY AND VINCRISTINE FOR CANCER” (SUNROCK BIOPHARMA S.L., priority 2022, published 2025)

T1: CCR9 (C-C chemokine receptor type 9) (human, UniProt P51686 1-369, limits assumed)
T1 construct: also called human chemokine receptor CCR9
T1 sequence (looked up): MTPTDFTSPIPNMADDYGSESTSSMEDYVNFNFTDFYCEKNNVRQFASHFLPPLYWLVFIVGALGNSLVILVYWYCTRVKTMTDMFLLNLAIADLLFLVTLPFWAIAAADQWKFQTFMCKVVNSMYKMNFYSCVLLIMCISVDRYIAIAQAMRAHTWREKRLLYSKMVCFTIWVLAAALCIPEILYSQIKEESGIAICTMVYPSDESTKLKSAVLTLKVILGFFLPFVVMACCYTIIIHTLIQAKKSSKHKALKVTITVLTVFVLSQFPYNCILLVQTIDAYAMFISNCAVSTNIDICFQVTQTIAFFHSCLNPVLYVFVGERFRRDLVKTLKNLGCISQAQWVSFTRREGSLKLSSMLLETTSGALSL

T2: CCR9 (Homo sapiens, UniProt P51686)
T2 sequence (P51686 1-369): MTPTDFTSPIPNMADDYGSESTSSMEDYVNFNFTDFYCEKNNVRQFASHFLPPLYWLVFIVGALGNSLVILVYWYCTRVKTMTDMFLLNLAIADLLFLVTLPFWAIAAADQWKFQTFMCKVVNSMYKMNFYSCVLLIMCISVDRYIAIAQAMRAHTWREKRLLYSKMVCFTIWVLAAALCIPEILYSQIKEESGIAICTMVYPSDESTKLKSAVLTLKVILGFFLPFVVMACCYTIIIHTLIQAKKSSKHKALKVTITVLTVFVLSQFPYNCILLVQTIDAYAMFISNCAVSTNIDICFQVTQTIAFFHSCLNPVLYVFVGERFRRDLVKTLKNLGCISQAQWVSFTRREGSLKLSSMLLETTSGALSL


Columns and labels:
[1] = test system: MOLT4-GFP xenografts; assay: Survival of NSG mice with MOLT4-GFP xenografts, SRB1 combined with chemotherapy agents; type: in vivo; conditions: for Median survival: NSG mice, MOLT4-GFP i.v., SRB1 or isotype 4 mg/kg i.p. x4 weekly, vincristine 0.6 mg/kg i.v. day 5, dexamethasone 50 μg/mouse/dose days 5-9; for # censored subjects / # deaths: same survival study, 10 animals/group
[2] = target: T1, CCR9 (C-C chemokine receptor type 9); assay: CCR9 binding in the presence of CCL25; no protocol given
[3] = target: T2, CCR9; assay: CCR9 binding in the presence of CCL25, measured by flow cytometry
Source text: Therefore, like “91R” and “92R”, the “SRB1” is preferred for use in the treatment of a condition in which CCL25 concentration may be elevated, including in the treatment of certain cancers as described in detail herein.

[4] = test system: CCR9+ lymphocyte; assay: Antibody mediated complement-dependent cytotoxicity (CDC); type: cell-based
Source text: The present inventors have, for example, observed antibody mediated complement-dependent cytotoxicity (CDC) utilizing anti-CCR9 antibodies such as “91R”, “92R” and “SRB1” described above.

Molecule	Median survival [1] [days]	# censored subjects [1]	# deaths [1]	binding result [2]	CCR9 binding in the presence of the ligand CCL25 [3]	complement-dependent cytotoxicity (CDC) [4]	survival, given as IC50 ([1]; SRB1 at 4 mg/kg vs Control (48 days)) [days]
CC[C@]1(O)C[C@H]2CN(CCc3c([nH]c4ccccc34)[C@@](C(=O)OC)(c3cc4c(cc3OC)N(C=O)[C@H]3[C@@](O)(C(=O)OC)[C@H](OC(C)=O)[C@]5(CC)C=CCN6CC[C@]43[C@@H]65)C2)C1 [VX, vincristine]	67.9	10	10	–	–	–	–
C[C@@H]1C[C@H]2[C@@H]3CCC4=CC(=O)C=C[C@]4(C)[C@@]3(F)[C@@H](O)C[C@]2(C)[C@@]1(O)C(=O)CO [DX, dexamethasone]	47.7	10	10	–	–	–	–
SRB1 anti-CCR9 antibody (antibody, V domains shown, also called CCR9-targeted antibody (SRB1)) VH: EVQLVESGGGLVKPGGSLRLSCAASGFTFSKFWMNWVRQAPGKGLEWVGEIRLKSNNYATHYAESVKGRFTISRDDSKNTLYLQMNSLKTEDTAVYYCTSDGWFAYWGQGTLVTVSS VL: DVQMTQSPSSLSASVGDRVTITCRSSQSLVHSNGNTYLNWYQQKPGKAPKLLIYKVSNRFSGVPSRFSGSGSGTDFTLTISSLQPEDFATYYCSQSTHFPRTFGGGTKVEIK	66.2	10	10	binds	exhibit CCR9 binding in the presence of CCL25	observed	70
